Data as given in PMC11316058.

Biological target: Hsp90α (N-terminally His-tagged, human) (human) (UniProt P07900)
Assay: ITC; Ahsa1 or Ahsa1^Δ20 (200-300 µM) in the syringe injected into Hsp90-α (30 µM) in the cell; 25 °C; 30 mM Tris pH 7.5, 20 mM KCl, 10% glycerol, 1 mM TCEP; two-site-binding model; three independent experiments

Row | Kd | Substance
1 | 3200 nM | Ahsa1^Δ20 (C-terminal 6xHis) (from UniProt O95433 21-338) (domain or fragment)
2 | 1730 nM | full-length Ahsa1 (C-terminal 6xHis) (from UniProt O95433 1-338) (natural protein)
